Values quoted from earlier work, collected in publication PMC10019135.

Biological target: IL-2Rβ/γc heterodimer (Homo sapiens) (UniProt P14784)
UniProt P14784, sequence (P14784 27-240, chain 1 of 2): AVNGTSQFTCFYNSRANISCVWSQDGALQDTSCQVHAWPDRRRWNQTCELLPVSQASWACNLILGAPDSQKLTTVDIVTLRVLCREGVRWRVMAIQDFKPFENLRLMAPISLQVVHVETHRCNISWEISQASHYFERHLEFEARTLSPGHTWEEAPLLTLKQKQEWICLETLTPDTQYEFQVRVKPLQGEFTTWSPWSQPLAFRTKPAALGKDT
UniProt P14784, sequence (P31785 23-262, chain 2 of 2, further chain): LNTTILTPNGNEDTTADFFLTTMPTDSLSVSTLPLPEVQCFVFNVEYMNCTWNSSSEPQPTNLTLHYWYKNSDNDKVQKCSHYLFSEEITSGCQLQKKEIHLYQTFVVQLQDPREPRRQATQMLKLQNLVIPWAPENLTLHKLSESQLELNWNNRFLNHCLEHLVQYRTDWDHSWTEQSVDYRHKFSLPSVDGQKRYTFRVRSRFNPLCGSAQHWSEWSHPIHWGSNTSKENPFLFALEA

Kd: 1 nM
Substance: IL-2 (from UniProt P60568)
